Assay results published in patent publication US20240325557A1, “TREATMENT OF CANCER” (INNATE PHARMA, priority 2020, published 2024).

Columns and labels:
[1] = molecular target: Rat Nectin-4 on CHO cells (rat); assay: flow cytometry titration on CHO cells expressing rat Nectin-4, median MFI (PE)
[2] = molecular target: monomeric huNectin4-his-BirA protein (human) (UniProt Q96NY8); assay: SPR (Biacore T200), antibody captured on Protein A, monomeric huNectin4-his-BirA injected

EC50 (read off the curve) [1] | Kd [2] | koff [2] | kon [2] | Binder
0.1 µg/mL |  |  |  | antibody 5E7 (antibody, human IgG1, V domains shown) VH: QVQLQQPGAELVKPGASVKLSCKASGYIFTSYWMHWVKQRPGQGLEWIGEIDPSDSYTNYNQKFKGKATLTLDKSSSTTYMQLSSLTSEDSAVYYCVRGYGNYGDYWGQGTTLTVSS VL: DVVMTQAAFSNPVTLGTSASISCRSSKSLLHSNGITYLYWYLQKPGQSPQLLIYQMSNLASGVPDRFSSSGSGTDFTLRISRVEAEDVGVYYCAQNLELPWTFGGGTKLEIK
0.1 µg/mL |  |  |  | antibody 10B12 (antibody, human IgG1, V domains shown) VH: QVQLQQPGAELVKPGASVKLSCKASGYTFTSYWMHWVKQRPGQGLEWIGEIDPSDSYTNYNQKFKGKATLTVDKSSSTAYMQLSSLTSEDSAVYYCVRGYGNYGDYWGQGTTLTVSS VL: DIVMTQAAFSNPVTLGTSASISCRSSKSLLHSNGITYLYWYLQKPGQSPQLLIYQMSNLASGVPDRFSSSGSGTDFTLRISRVEAEDVGVYYCAQNLELPWTFGGGTKLEIK
 | 13.7 nM | 0.0047 s⁻¹ | 340000 M⁻¹ s⁻¹ | Enfortumab (ASG-22ME) (antibody, from a related filing, V domains shown) VH: EVQLVESGGGLVQPGGSLRLSCAASGFTFSSYNMNWVRQAPGKGLEWVSYISSSSSTIYYADSVKGRFTISRDNAKNSLSLQMNSLRDEDTAVYYCARAYYYGMDVWGQGTTVTVSS VL: DIQMTQSPSSVSASVGDRVTITCRASQGISGWLAWYQQKPGKAPKFLIYAASTLQSGVPSRFSGSGSGTDFTLTISSLQPEDFATYYCQQANSFPPTFGGGTKVEIKR
